Reference: US20230250154A1 (CYTONICS, published 2023)
Like-named read-outs stand apart in the source and are kept apart here.

T1: MMP2 (human, UniProt P08253 110-660, limits assumed)
T1 sequence (looked up): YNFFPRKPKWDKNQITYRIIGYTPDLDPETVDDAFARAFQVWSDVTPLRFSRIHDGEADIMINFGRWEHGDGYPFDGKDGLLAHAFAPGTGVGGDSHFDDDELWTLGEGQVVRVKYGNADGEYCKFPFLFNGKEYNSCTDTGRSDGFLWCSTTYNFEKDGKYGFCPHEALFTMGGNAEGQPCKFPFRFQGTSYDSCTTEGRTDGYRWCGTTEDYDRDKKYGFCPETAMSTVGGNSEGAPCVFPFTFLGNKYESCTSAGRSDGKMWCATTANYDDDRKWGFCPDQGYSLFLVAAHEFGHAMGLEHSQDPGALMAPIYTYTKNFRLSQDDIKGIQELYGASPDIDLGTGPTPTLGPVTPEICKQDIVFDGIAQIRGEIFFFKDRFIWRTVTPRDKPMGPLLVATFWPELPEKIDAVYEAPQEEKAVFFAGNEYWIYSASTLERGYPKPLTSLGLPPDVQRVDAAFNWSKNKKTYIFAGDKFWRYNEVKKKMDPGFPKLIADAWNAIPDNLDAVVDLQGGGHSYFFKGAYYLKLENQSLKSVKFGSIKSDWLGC

T2: MMP1 (human, UniProt P03956 100-469, limits assumed)
T2 sequence (looked up): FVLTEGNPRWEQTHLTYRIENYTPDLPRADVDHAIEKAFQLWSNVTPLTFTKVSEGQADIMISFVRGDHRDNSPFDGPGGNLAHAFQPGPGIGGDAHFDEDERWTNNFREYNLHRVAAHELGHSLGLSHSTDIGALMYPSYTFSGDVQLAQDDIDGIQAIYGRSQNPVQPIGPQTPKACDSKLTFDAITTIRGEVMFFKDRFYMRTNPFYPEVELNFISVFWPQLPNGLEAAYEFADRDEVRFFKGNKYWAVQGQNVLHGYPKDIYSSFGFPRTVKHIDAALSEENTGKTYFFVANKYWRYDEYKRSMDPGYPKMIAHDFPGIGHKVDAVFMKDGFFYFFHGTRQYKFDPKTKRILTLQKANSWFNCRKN

T3: MMP7 (UniProt P09237 95-267, limits assumed)
T3 sequence (looked up): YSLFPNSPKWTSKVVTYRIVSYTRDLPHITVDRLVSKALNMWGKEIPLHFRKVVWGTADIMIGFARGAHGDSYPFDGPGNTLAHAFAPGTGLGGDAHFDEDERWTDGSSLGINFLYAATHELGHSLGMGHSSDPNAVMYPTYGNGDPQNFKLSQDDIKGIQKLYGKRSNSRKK

T4: Cathepsin G (UniProt P08311 21-244)
T4 sequence (looked up): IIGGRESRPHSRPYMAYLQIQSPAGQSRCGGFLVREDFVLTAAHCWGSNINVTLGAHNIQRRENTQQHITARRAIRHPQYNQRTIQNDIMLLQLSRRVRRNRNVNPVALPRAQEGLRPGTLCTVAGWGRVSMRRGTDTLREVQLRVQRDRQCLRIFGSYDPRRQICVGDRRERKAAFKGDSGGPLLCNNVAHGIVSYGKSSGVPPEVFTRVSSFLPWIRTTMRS

T5: ADAMTS4 (human, UniProt O75173 213-685, limits assumed)
T5 sequence (looked up): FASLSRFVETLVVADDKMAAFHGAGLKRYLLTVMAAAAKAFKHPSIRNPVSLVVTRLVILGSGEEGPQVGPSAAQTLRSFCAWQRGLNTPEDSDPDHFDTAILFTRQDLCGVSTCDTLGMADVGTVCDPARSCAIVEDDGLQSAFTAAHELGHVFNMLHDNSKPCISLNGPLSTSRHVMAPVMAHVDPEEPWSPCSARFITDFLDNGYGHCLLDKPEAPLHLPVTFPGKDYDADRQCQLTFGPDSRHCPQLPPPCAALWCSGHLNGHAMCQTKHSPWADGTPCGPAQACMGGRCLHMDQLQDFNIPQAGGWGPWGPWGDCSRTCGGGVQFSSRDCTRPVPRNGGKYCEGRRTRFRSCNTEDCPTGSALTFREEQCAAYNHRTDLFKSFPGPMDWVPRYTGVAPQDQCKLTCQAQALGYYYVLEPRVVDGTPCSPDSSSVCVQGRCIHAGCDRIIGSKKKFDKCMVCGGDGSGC

T6: ADAMTS5 (human, UniProt Q9UNA0 262-622, limits assumed)
T6 sequence (looked up): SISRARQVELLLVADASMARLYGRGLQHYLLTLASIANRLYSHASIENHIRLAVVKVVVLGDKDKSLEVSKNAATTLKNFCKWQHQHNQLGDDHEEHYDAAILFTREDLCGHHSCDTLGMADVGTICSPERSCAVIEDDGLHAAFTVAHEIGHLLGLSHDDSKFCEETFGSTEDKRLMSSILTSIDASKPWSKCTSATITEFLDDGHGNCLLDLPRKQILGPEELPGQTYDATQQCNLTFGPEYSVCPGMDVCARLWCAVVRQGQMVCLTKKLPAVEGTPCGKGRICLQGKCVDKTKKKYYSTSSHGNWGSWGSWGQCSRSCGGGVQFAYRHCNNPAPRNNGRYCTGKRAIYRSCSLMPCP

B1: Variant A2M, bait region SEQ ID NO 129 (other)
chain: SVSGKPQYMVLVPSLLHTETTEKGCVLLSYLNETVTVSASLESVRGNRSLFTDLEAENDVLHCVAFAVPKSSSNEEVMFLTVQVKGPTQEFKKRTTVMVKNEDSLVFVQTDKSIYKPGQTVKFRVVSMDENFHPLNELIPLVYIQDPKGNRIAQWQSFQLEGGLKQFSFPLSSEPFQGSYKVVVQKKSGGRTEHPFTVEEFVLPKFEVQVTVPKIITILEEEMNVSVCGLYTYGKPVPGHVTVSICRKYSDASDCHGEDSQAFCEKFSGQLNSHGCFYQQVKTKVFQLKRKEYEMKLHTEAQIQEEGTVVELTGRQSSEITRTITKLSFVKVDSHFRQGIPFFGQVRLVDGKGVPIPNKVIFIRGNEANYYSNATTDEHGLVQFSINTTNVMGTSLTVRVNYKDRSPCYGYQWVSEEHEEAHHTAYLVFSPSKSFVHLEPMSHELPCGHTQTVQAHYILNGGTLLGLKKLSFYYLIMAKGGIVRTGTHGLLVKQEDMKGHFSISIPVKSDIAPVARLLIYAVLPTGDVIGDSAKYDVENCLANKVDLSFSPSQSLPASHAHLRVTAAPQSVCALRAVDQSVLLMKPDAELSASSVYNLLPEKDLTGFPGPLNDQDDEDCINRHNVYINGITYTPVSSTNEKDMYSFLEDMGLKAFTNSKIRKPKMCPQLEQYEMHGPEAIPMSIPTEGEGEGEGIPENFFGVSEDLVVQIVEEPHTKLRKYFPETWIWDLVVVNSAGVAEVGVTVPDTITEWKAGAFCLSEDAGLGISSTASLRAFQPFFVELTMPYSVIRGEAFTLKATVLNYLPKCIRVSVQLEASPAFLAVPVEKEQAPHCICANGRQTVSWAVTPKSLGNVNFTVSAEALESQELCGTEVPSVPEHGRKDTVIKPLLVEPEGLEKETTFNSLLCPSGGEVSEELSLKLPPNVVEESARASVSVLGDILGSAMQNTQNLLQMPYGCGEQNMVLFAPNIYVLDYLNETQQLTPEIKSKAIGYLNTGYQRQLNYKHYDGSYSTFGERYGRNQGNTWLTAFVLKTFAQARAYIFIDEAHITQALIWLSQRQKDNGCFRSSGSLLNNAIKGGVEDEVTLSAYITIALLEIPLTVTHPVVRNALFCLESAWKTAQEGDHGSHVYTKALLAYAFALAGNQDKRKEVLKSLNEEAVKKDNSVHWERPQKPKAPVGHFYEPQAPSAEVEMTSYVLLAYLTAQPAPTSEDLTSATNIVKWITKQQNAQGGFSSTQDTVVALHALSKYGAATFTRTGKAAQVTIQSSGTFSSKFQVDNNNRLLLQQVSLPELPGEYSMKVTGEGCVYLQTSLKYNILPEKEEFPFALGVQTLPQTCDEPKAHTSFQISLSVSYTGSRSASNMAIVDVKMVSGFIPLKPTVKMLERSNHVSRTEVSSNHVLIYLDKVSNQTLSLFFTVLQDVPVRDLKPAIVKVYDYYETDEFAIAEYNAPCSKDLGNADYKDDDDKGASHHHHHH
B2: Variant A2M, bait region SEQ ID NO 15 (other)
chain: SVSGKPQYMVLVPSLLHTETTEKGCVLLSYLNETVTVSASLESVRGNRSLFTDLEAENDVLHCVAFAVPKSSSNEEVMFLTVQVKGPTQEFKKRTTVMVKNEDSLVFVQTDKSIYKPGQTVKFRVVSMDENFHPLNELIPLVYIQDPKGNRIAQWQSFQLEGGLKQFSFPLSSEPFQGSYKVVVQKKSGGRTEHPFTVEEFVLPKFEVQVTVPKIITILEEEMNVSVCGLYTYGKPVPGHVTVSICRKYSDASDCHGEDSQAFCEKFSGQLNSHGCFYQQVKTKVFQLKRKEYEMKLHTEAQIQEEGTVVELTGRQSSEITRTITKLSFVKVDSHFRQGIPFFGQVRLVDGKGVPIPNKVIFIRGNEANYYSNATTDEHGLVQFSINTTNVMGTSLTVRVNYKDRSPCYGYQWVSEEHEEAHHTAYLVFSPSKSFVHLEPMSHELPCGHTQTVQAHYILNGGTLLGLKKLSFYYLIMAKGGIVRTGTHGLLVKQEDMKGHFSISIPVKSDIAPVARLLIYAVLPTGDVIGDSAKYDVENCLANKVDLSFSPSQSLPASHAHLRVTAAPQSVCALRAVDQSVLLMKPDAELSASSVYNLLPEKDLTGFPGPLNDQDDEDCINRHNVYINGITYTPVSSTNEKDMYSFLEDMGLKAFTNSKIRKPKMCPQLEHGPEGEGEGEGIPENFFGVSEDLVVQISELEGRGSRYLTAVEEPHTKLRKYFPETWIWDLVVVNSAGVAEVGVTVPDTITEWKAGAFCLSEDAGLGISSTASLRAFQPFFVELTMPYSVIRGEAFTLKATVLNYLPKCIRVSVQLEASPAFLAVPVEKEQAPHCICANGRQTVSWAVTPKSLGNVNFTVSAEALESQELCGTEVPSVPEHGRKDTVIKPLLVEPEGLEKETTFNSLLCPSGGEVSEELSLKLPPNVVEESARASVSVLGDILGSAMQNTQNLLQMPYGCGEQNMVLFAPNIYVLDYLNETQQLTPEIKSKAIGYLNTGYQRQLNYKHYDGSYSTFGERYGRNQGNTWLTAFVLKTFAQARAYIFIDEAHITQALIWLSQRQKDNGCFRSSGSLLNNAIKGGVEDEVTLSAYITIALLEIPLTVTHPVVRNALFCLESAWKTAQEGDHGSHVYTKALLAYAFALAGNQDKRKEVLKSLNEEAVKKDNSVHWERPQKPKAPVGHFYEPQAPSAEVEMTSYVLLAYLTAQPAPTSEDLTSATNIVKWITKQQNAQGGFSSTQDTVVALHALSKYGAATFTRTGKAAQVTIQSSGTFSSKFQVDNNNRLLLQQVSLPELPGEYSMKVTGEGCVYLQTSLKYNILPEKEEFPFALGVQTLPQTCDEPKAHTSFQISLSVSYTGSRSASNMAIVDVKMVSGFIPLKPTVKMLERSNHVSRTEVSSNHVLIYLDKVSNQTLSLFFTVLQDVPVRDLKPAIVKVYDYYETDEFAIAEYNAPCSKDLGNADYKDDDDKGASHHHHHH

What was measured:
Assay in all cases: cell-based or functional assay
MMP2 [1] = molecular target: T1, MMP2
MMP1 [2] = molecular target: T2, MMP1
Elastase [3] = molecular target: Elastase
MMP9 = MMP9 (human, UniProt P14780 107-707, limits assumed)
Chain of MMP9 (P14780 107-707 limits assumed): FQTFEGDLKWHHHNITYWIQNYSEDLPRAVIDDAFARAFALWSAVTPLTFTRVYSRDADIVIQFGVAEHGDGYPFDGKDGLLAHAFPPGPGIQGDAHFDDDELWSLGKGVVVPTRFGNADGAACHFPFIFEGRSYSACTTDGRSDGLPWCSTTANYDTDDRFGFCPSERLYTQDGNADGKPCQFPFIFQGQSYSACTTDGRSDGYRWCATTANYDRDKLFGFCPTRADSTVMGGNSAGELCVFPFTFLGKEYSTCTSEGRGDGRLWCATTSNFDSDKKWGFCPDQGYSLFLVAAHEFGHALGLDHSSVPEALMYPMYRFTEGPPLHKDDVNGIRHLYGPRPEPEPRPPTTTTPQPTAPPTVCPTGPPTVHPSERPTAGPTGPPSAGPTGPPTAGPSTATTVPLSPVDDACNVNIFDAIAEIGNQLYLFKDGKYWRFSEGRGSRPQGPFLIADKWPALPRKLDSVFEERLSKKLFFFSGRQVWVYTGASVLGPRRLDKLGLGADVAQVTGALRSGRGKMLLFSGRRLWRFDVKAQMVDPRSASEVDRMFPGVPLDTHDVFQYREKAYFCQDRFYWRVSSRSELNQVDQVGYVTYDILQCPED

MMP7 = molecular target: T3, MMP7
MMP2 [4] = molecular target: T1, MMP2; remark: listed apart in the source
MMP3 = MMP3 (human, UniProt P08254 100-477, limits assumed)
Chain of MMP3 (P08254 100-477 limits assumed): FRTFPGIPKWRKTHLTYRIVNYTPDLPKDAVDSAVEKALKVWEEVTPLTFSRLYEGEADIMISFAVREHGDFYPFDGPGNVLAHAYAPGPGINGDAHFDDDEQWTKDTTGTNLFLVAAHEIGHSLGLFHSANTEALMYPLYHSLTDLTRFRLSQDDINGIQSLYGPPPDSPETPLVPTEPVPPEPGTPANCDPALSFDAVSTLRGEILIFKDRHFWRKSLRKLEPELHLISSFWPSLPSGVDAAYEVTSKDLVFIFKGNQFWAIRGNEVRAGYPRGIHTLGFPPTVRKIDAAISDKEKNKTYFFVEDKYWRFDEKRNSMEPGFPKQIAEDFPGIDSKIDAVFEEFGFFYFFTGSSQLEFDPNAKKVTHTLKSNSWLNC

Elastase [5] = molecular target: Elastase; remark: listed apart in the source
MMP8 = MMP8 (human, UniProt P22894 101-467, limits assumed)
Chain of MMP8 (P22894 101-467 limits assumed): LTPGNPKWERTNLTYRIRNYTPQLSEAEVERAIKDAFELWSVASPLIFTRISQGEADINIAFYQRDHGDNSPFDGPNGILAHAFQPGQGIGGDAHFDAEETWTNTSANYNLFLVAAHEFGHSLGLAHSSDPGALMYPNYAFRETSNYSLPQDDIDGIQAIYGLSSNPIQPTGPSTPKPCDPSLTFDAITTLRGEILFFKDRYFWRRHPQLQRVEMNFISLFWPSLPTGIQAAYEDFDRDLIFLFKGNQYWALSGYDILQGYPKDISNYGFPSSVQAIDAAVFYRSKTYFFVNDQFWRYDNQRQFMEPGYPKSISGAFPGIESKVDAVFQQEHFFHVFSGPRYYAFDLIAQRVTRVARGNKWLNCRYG

MMP13 = MMP13 (human, UniProt P45452 104-471, limits assumed)
Cathepsin G = molecular target: T4, Cathepsin G
MMP1 [6] = molecular target: T2, MMP1; remark: listed apart in the source
ADAMTS4 = molecular target: T5, ADAMTS4
ADAMTS5 = molecular target: T6, ADAMTS5

Binder	Protease Inhibition (% of WT) (MMP2 [1])	Protease Inhibition (% of WT) (MMP1 [2])	Protease Inhibition (% of WT) (Elastase [3])	Protease Inhibition (% of WT) (MMP9)	Protease Inhibition (% of WT) (MMP7)	Protease Inhibition (% of WT) (MMP2 [4])	Protease Inhibition (% of WT) (MMP3)	Protease Inhibition (% of WT) (Elastase [5])	Protease Inhibition (% of WT) (MMP8)	Protease Inhibition (% of WT) (MMP13)	Protease Inhibition (% of WT) (Cathepsin G)	Protease Inhibition (% of WT) (MMP1 [6])	Protease Inhibition (% of WT) (ADAMTS4)	Protease Inhibition (% of WT) (ADAMTS5)
B1	20 % of WT	200 % of WT	75 % of WT	–	–	–	–	–	–	–	–	–	–	–
B2	–	–	–	41 % of WT	157 % of WT	59 % of WT	40 % of WT	115 % of WT	77 % of WT	143 % of WT	139 % of WT	116 % of WT	83 % of WT	183 % of WT
